In patent US20240166765A1, “INFLAMMATORY DISEASE TREATMENT USING ANTI-TISSUE FACTOR ANTIBODIES” (Iconic Therapeutics LLC, priority 2020, published 2024):

Experiments:
Test in all cases: Epitope binning, chimeric TF construct mapping (live cell staining assay)
Assay type in all cases: binding
[1] = biological target: T1, chimeric human-rat TF constructs expressed on HEK293 cells (Homo sapiens, UniProt P13726); details: construct hTF
T1 construct: expressed in transfected cells; host or cells: HEK293
Method: (§1) To establish binding of the anti-human TF antibodies to the various TF constructs, HEK293 cells were transfected with a DNA plasmid that co-expresses the TF construct and a green fluorescent protein marker. For a subset of the antibodies, an antibody titration (a 12-point 1:3 dilution series starting at 250 nM) was evaluated on select TF constructs (See international PCT application PCT/US2019/012427 and U.S. utility application Ser. No. 16/959,652, incorporated herein by reference in their entirety). […] Two days after transfection, cells were collected from the tissue culture plate, stained with 15 μg/ml of the indicated anti-TF antibody, washed, stained with anti-human IgG-Fc Alexa Fluor 647 polyclonal antibody, washed, and stained with the viability dye 4′,6-Diamidino-2-Phenylindole, Dihydrochloride. Upon acquisition of 80,000 live events on a flow cytometer, live cells marked with the fluorescent marker were analyzed for the degree of staining by the anti-TF antibody. […] As used herein, the term “live cell staining assay” refers to the antibody binding assay used in this example.
(§2) When “Percentage antibody binding to TF construct relative to hTF” in Tables 51 and 52 was less than 50%, the antibody was considered a non-binder (0) in Tables 53 and 54.

[2] = biological target: T2, chimeric human-rat TF constructs expressed on HEK293 cells (Homo sapiens, UniProt P13726, A112W/A121H/DEL115-116/DUP123-123/G113R/INS118HGKETLF/L125P/S120T/Y110V); details: construct h78-93_r (18); human segment replaced by rat segment
T2 construct: expressed in transfected cells; host or cells: HEK293
Method: as §1, §2

[3] = biological target: T3, chimeric human-rat TF constructs expressed on HEK293 cells (Homo sapiens, UniProt P13726, A200N/D212E/E215V/K197R/K201T/N203H/N216S/S192D/S195T/S220F/V221A); details: construct h159-189_r (11); human segment replaced by rat segment
T3 construct: expressed in transfected cells; host or cells: HEK293
Method: as §1, §2

[4] = biological target: T4, chimeric human-rat TF constructs expressed on HEK293 cells (Homo sapiens, UniProt P13726, A200N/K201T/N203H); details: construct h167-174_r (3); human segment replaced by rat segment
T4 construct: expressed in transfected cells; host or cells: HEK293
Method: as §1, §2

[5] = biological target: T5, chimeric human-rat TF constructs expressed on HEK293 cells (Homo sapiens, UniProt P13726, D177Q/E160K/E162S/F148Y/I184G/K181N/L140I/N156K/N170G/R163F/R168K/S147K/S174T/T144V/T186I/V151G/V155L/W190R/Y188T); details: construct h108-158_r (19); human segment replaced by rat segment
T5 construct: expressed in transfected cells; host or cells: HEK293
Method: as §1, §2

[6] = biological target: T6, chimeric human-rat TF constructs expressed on HEK293 cells (Homo sapiens, UniProt P13726, D177Q/N170G/R168K/S174T); details: construct h133-145_r (4); human segment replaced by rat segment
T6 construct: expressed in transfected cells; host or cells: HEK293
Method: as §1, §2

[7] = biological target: T7, chimeric human-rat TF constructs expressed on HEK293 cells (Homo sapiens, UniProt P13726, D177Q/S174T); details: construct h140-145_r (2); human segment replaced by rat segment
T7 construct: expressed in transfected cells; host or cells: HEK293
Method: as §1, §2

[8] = biological target: T8, chimeric human-rat TF constructs expressed on HEK293 cells (Homo sapiens, UniProt P13726, D212E/E215V/N216S/S220F/V221A); details: construct h175-189_r (5); human segment replaced by rat segment
T8 construct: expressed in transfected cells; host or cells: HEK293
Method: as §1, §2

[9] = biological target: T9, chimeric human-rat TF constructs expressed on HEK293 cells (Homo sapiens, UniProt P13726, D76N/F108L/F82T/G75R/K100N/K73R/L104E/Q101W/S79Y/T72D/Y83G); details: construct h39-77_r (11); human segment replaced by rat segment
T9 construct: expressed in transfected cells; host or cells: HEK293
Method: as §1, §2

[10] = biological target: T10, chimeric human-rat TF constructs expressed on HEK293 cells (Homo sapiens, UniProt P13726, E160K/E162S/F148Y/L140I/N156K/R163F/S147K/T144V/V151G/V155L); details: construct h108-132_r (10); human segment replaced by rat segment
T10 construct: expressed in transfected cells; host or cells: HEK293
Method: as §1, §2

[11] = biological target: T11, chimeric human-rat TF constructs expressed on HEK293 cells (Homo sapiens, UniProt P13726, E58Q/K47I/N50D/Q64Y/V62T/V65T); details: construct h1-38_r (14); human segment replaced by rat segment
T11 construct: expressed in transfected cells; host or cells: HEK293
Method: as §1, §2

[12] = biological target: T12, chimeric human-rat TF constructs expressed on HEK293 cells (Homo sapiens, UniProt P13726, I184G/T186I/W190R/Y188T); details: construct h152-158_r (4); human segment replaced by rat segment
T12 construct: expressed in transfected cells; host or cells: HEK293
Method: as §1, §2

[13] = biological target: T13, chimeric human-rat TF constructs expressed on HEK293 cells (Homo sapiens, UniProt P13726, K181N)
T13 construct: expressed in transfected cells; host or cells: HEK293
Method: as §1, §2

[14] = biological target: T14, chimeric human-rat TF constructs expressed on HEK293 cells (Homo sapiens, UniProt P13726, K197R/S192D/S195T); details: construct h159-166_r (3); human segment replaced by rat segment
T14 construct: expressed in transfected cells; host or cells: HEK293
Method: as §1, §2

[15] = biological target: T15, chimeric human-rat TF constructs expressed on HEK293 cells (Homo sapiens, UniProt P13726, N203H/T229K); details: construct hTF_N171H_T197K
T15 construct: expressed in transfected cells; host or cells: HEK293
Method: as §1, §2

[16] = biological target: T16, chimeric human-rat TF constructs expressed on HEK293 cells (Homo sapiens, UniProt P13726, P226F); details: construct h190-219_r (16); human segment replaced by rat segment
T16 construct: expressed in transfected cells; host or cells: HEK293
Method: as §1, §2

[17] = test system: chimeric human-rat TF constructs expressed on HEK293 cells
Method: as §1, §2

TF-011
Antibody binding to TF construct ([1]; Table 53): 1 (between 50% and 150%, the antibody was considered a binder (1))
Antibody binding to TF construct ([1]; Table 54): 1 (between 50% and 150%, the antibody was considered a binder (1))
Antibody binding to TF construct [2]: 1 (between 50% and 150%, the antibody was considered a binder (1))
Antibody binding to TF construct [3]: 1 (between 50% and 150%, the antibody was considered a binder (1))
Antibody binding to TF construct [4]: 1 (between 50% and 150%, the antibody was considered a binder (1))
Antibody binding to TF construct [5]: 1 (between 50% and 150%, the antibody was considered a binder (1))
Antibody binding to TF construct [6]: 1 (between 50% and 150%, the antibody was considered a binder (1))
Antibody binding to TF construct [7]: 1 (between 50% and 150%, the antibody was considered a binder (1))
Antibody binding to TF construct [8]: 1 (between 50% and 150%, the antibody was considered a binder (1))
Antibody binding to TF construct [9]: 0 (less than 50%, the antibody was considered a non-binder (0))
Antibody binding to TF construct [10]: 1 (between 50% and 150%, the antibody was considered a binder (1))
Antibody binding to TF construct [11]: 1 (between 50% and 150%, the antibody was considered a binder (1))
Antibody binding to TF construct [12]: 1 (between 50% and 150%, the antibody was considered a binder (1))
Antibody binding to TF construct ([13]; construct h146-151_r (1), human segment replaced by rat segment): 1 (between 50% and 150%, the antibody was considered a binder (1))
Antibody binding to TF construct ([13]; construct hTF_K149N): 1 (between 50% and 150%, the antibody was considered a binder (1))
Antibody binding to TF construct [14]: 1 (between 50% and 150%, the antibody was considered a binder (1))
Antibody binding to TF construct [15]: 1 (between 50% and 150%, the antibody was considered a binder (1))
Antibody binding to TF construct [16]: 1 (between 50% and 150%, the antibody was considered a binder (1))
Antibody binding to TF construct ([17]; Table 53, construct rTF): 0 (less than 50%, the antibody was considered a non-binder (0))
Antibody binding to TF construct ([17]; Table 54, construct rTF): 0 (less than 50%, the antibody was considered a non-binder (0))
Constructs not bound by antibody ([17]; chimeric human-rat TF constructs): rTF, h1-107_r, h1-77_r, h39-77_r, h78-107_r, h78-107_r.v2, h94-107_r
Antibody binding to TF construct ([17]; construct h78-107_r (21), human segment replaced by rat segment): 0 (less than 50%, the antibody was considered a non-binder (0))
Antibody binding to TF construct ([17]; construct h108-219_r (46), human segment replaced by rat segment): 1 (between 50% and 150%, the antibody was considered a binder (1))
Antibody binding to TF construct ([17]; construct h159-219_r (27), human segment replaced by rat segment): 1 (between 50% and 150%, the antibody was considered a binder (1))
Antibody binding to TF construct ([17]; construct r141-194_h (rat amino acid segment replaced by human segment, 20 amino acid changes)): 0 (less than 50%, the antibody was considered a non-binder (0))
